From US20150197568A1 (AstraZeneca / MedImmune, published 2015) come the findings set out here.

T1: Human CNTF (human, UniProt P26441 2-200)
T1 construct: also called ciliary neurotrophic factor
T1 sequence (looked up): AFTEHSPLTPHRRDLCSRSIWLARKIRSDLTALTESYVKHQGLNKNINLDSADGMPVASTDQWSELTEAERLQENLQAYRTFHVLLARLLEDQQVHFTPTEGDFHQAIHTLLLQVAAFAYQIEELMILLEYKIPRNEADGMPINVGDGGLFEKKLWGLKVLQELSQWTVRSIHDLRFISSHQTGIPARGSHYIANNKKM

T2: Human IL-11 (human, UniProt P20809 22-199, limits assumed)
T2 sequence (looked up): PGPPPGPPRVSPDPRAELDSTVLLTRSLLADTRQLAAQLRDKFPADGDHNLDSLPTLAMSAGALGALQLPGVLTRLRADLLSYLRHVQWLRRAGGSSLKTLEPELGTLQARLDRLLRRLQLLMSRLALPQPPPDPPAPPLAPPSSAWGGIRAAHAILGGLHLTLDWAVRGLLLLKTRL

T3: Murine IL-6 (murine, UniProt P08505 25-211)
T3 construct: also called mouse IL-6
T3 sequence (looked up): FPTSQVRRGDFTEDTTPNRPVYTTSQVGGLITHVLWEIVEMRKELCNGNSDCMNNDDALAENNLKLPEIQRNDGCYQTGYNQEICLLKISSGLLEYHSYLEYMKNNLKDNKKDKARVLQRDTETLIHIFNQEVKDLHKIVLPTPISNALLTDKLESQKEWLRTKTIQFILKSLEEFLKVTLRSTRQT

T4: Human Oncostatin M (human, UniProt P13725 26-221)
T4 construct: also called OsM
T4 sequence (looked up): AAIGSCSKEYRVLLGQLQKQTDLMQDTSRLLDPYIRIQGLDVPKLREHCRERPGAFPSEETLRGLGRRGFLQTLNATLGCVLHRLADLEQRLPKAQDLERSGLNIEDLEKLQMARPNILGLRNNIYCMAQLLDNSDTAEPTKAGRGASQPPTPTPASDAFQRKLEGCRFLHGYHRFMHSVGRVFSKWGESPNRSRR

T5: Rat IL-6 (rat, UniProt P20607 25-211)
T5 sequence (looked up): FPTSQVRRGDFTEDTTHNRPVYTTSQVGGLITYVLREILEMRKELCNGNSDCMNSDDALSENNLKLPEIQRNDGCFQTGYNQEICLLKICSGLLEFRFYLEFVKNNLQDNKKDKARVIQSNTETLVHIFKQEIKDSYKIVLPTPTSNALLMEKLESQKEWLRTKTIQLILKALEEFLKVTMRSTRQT

B1: CAN022D10 scFv (scFv, V domains shown)
VH: EVQLVQSGGGLIQPGGSLRLSCAASGFTISSNYMIWVRQAPGKGLEWVSDLYYYAGDTYYADSVKGRFTMSRDISKNTVYLQMNSLRAEDTGVYYCARWADDHYYYIDVWGRGTLVTVSS
VL: DIVMTQSPSTLSASVGDRVTITCRASQGISSWLAWYQQKPGRAPKVLIYKASTLESGVPSRFSGSGSGTDFTLTISSLQPEDFATYYCQQSYSTPWTFGQGTKLEIKR
notes: Purified scFv from bacteria; also called CAN22D10; parent; not shown: scFv linker, domain order and any purification tags
B2: Antibody 17 (GL) IgG (antibody, V domains shown)
VH: B1 VH with Q6E, I12V, G92A, Y104P, Y105P, V109M
VL: DIQMTQSPSTLSASVGDRVTITCRASQGISSWLAWYQQKPGKAPKVLIYKASTLESGVPSRFSGSGSGTEFTLTISSLQPDDFATYYCQQSWLGGSFGQGTKLEIKR
B3: Antibody 7 (GL) IgG (antibody, V domains shown)
VH: B1 VH with Q6E, I12V, G92A, Y104P, Y105A, Y106W, I107V, V109L
VL: B2 VL
notes: Germlined IgG1 with human kappa constant domain; also called Ab 7
B4: CAN022D10 IgG (antibody, V domains shown)
VH: B1 VH
VL: B1 VL
notes: Biotinylated in the HTRF antibody-ligand assay; also called CAN22D10; parent IgG
B5: Antibody 18 (GL) IgG (antibody, V domains shown)
VH: B1 VH with Q6E, I12V, G92A, Y104P, Y105P, Y106W, V109L
VL: B2 VL
notes: Germlined IgG1/kappa; also called Ab 18
B6: Cynomolgus IL-6 (ligand, UniProt P79341 28-212, looked up)
chain: APVLPGEDSKDVAAPHSQPLTSSERIDKHIRYILDGISALRKETCNRSNMCESSKEALAENNLNLPKMAEKDGCFQSGFNEDTCLVKIITGLLEFEVYLEYLQNRFESSEEQARAVQMSTKVLIQFLQKKAKNLDAITTPEPTTNASLLTKLQAQNQWLQDMTTHLILRSFKEFLQSSLRALRQM
notes: mature; also called cyno IL-6; macaque IL-6

Assay [1] has as its target T6, HIS FLAG tagged human IL-6 (human, UniProt P05231 30-212).
T6 construct: In house; also called HIS FLAG IL-6; HIS/FLAG IL-6
Kind of assay: HTRF receptor-ligand competition; HIS FLAG human IL-6 vs biotinylated sIL-6R. The method, then: Unique scFvs were expressed again in bacteria and purified by affinity chromatography (as described by Bannister et al. Purified IgG samples of these clones were also prepared as described in section 1.3. The potencies of these samples were determined by competing a dilution series of the purified preparation against biotinylated sIL-6R for binding to HIS FLAG tagged human IL-6 (in house E. coli derived).
Purified scFv and IgG from positive clones identified from screening were tested in a HTRF® assay for inhibition of binding of HIS FLAG tagged human IL-6 to biotinylated IL-6R. 8 nM biotinylated human IL-6R was pre-incubated for 30 minutes at room temperature in the dark, with 8 nM streptavidin XL^{ent!}™. All dilutions were done in phosphate buffered saline (PBS) containing 0.4 M potassium fluoride and 0.1% BSA (assay buffer).

The target in assay [2] is T7, Mature human IL-6 (human, UniProt P05231 30-212). As to the kind of experiment: cell-based or functional assay.
For assay [3], the target named is T7, Mature human IL-6. As to the kind of experiment: cell-based or functional assay. This is another data set of the same source.
Target sequence in this assay (P05231 30-212): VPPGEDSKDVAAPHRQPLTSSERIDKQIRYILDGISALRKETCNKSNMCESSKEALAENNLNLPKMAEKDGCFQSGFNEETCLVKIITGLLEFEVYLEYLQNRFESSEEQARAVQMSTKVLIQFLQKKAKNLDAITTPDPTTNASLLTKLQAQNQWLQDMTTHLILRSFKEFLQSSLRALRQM
Assay [4] has as its target T7, Mature human IL-6. As to the kind of experiment: cell-based or functional assay. This is another data set of the same source.
Target sequence in this assay (P05231 30-212): as above
In assay [5] the target is T7, Mature human IL-6. As to the kind of experiment: SPR, BIAcore 2000; IgG amine-coupled to CM5 chip, IL-6 as analyte. The method, then: (§1) Human and cynomolgus IL-6 at a range of concentrations between 200 nM and 0.2 nM in HBS-EP buffer were passed over the sensor chip surface. The resulting sensorgrams were evaluated using BIA evaluation 3.1 software to provide relative binding data.
(§2) BIAcore studies were undertaken using a BIAcore 2000™. […] Human IL-6 at a range of concentrations between 200 nM and 0.2 nM in HBS-EP buffer were passed over the sensor chip surface. The resulting sensorgrams were evaluated using BIA evaluation 3.1 software to calculate the kₒₙ, koff and KD values for the antibodies tested.
In general terms: Surface plasmon resonance follows binding to a sensor surface in real time, without labels.

The assay “Cynomolgus IL-6” concerns the target B6. Described as above. As to the method: as §1, §2
For a further assay, the target named is T1, Human CNTF. Kind of assay: DELFIA epitope competition; protein titrated against biotinylated HIS FLAG IL-6 on immobilised CAN022D10 IgG. The method, then:
(§3) Titrations of IL-6 species including cynomolgus (in house E. Coli derived), human HIS FLAG IL-6 (in house HEK-EBNA derived), rat and murine IL-6 (both R & D Systems) were tested in each assay to establish the species cross-reactivity of the antibodies. Details of the protocol are provided in the Materials and Methods section.
(§4) Purified IgG were adsorbed onto 96-well Maxisorp microtitre plates (Nunc) in PBS at a concentration which gave a significant signal when biotinylated human IL-6 was added at approximately its estimated Kd for that particular IgG. Excess IgG was washed away with PBS-Tween (0.1% v/v) and the wells were blocked with PBS-Marvel (3% w/v) for 1 h. […] These mixtures were then transferred onto the blocked IgG and allowed to equilibrate for 1.5 h. Unbound antigen was removed by washing with PBS-Tween (0.1% v/v), while the remaining biotinylated human IL-6 was detected by streptavidin-Europium3+ conjugate (DELFIA® detection, PerkinElmer). Time-resolved fluorescence was measured at 620 nm on an EnVision plate reader (PerkinElmer). Fluorescence data was converted to % specific binding (100% was determined from control wells containing biotinylated human IL-6 but no competitor, 0% was from wells containing biotinylated human IL-6 and a 100-fold excess of unbiotinylated human IL-6). Resultant data were analysed using Prism curve fitting software (Graphpad) to determine IC50 values according to Equation 3.

For a further assay, the target named is Human LIF (human, UniProt P15018 23-202). The description is as above. The method, then:
as §3, §4

For another assay, the target named is T2, Human IL-11. The description is as above. The method, then:
as §3, §4

The target of a further assay is T3, Murine IL-6. Described as above. As to the method:
as §3, §4

The target of the next assay is T4, Human Oncostatin M. The assay is described as above. As to the method:
as §3, §4

A further assay addresses T5, Rat IL-6. The assay is described as above. As to the method:
as §3, §4

The target in assay [6] is T7, Mature human IL-6. As to the kind of experiment: cell-based or functional assay. This is another data set of the same source.
In the assay “CAN022D10 IgG” the target is B4. Kind of assay: DELFIA epitope competition; protein titrated against biotinylated HIS FLAG IL-6 on immobilised CAN022D10 IgG. As to the method: as §3, §4

Residue numbers refer to the chain shown, from its start.

Human LIF, sequence (P15018 23-202 limits assumed): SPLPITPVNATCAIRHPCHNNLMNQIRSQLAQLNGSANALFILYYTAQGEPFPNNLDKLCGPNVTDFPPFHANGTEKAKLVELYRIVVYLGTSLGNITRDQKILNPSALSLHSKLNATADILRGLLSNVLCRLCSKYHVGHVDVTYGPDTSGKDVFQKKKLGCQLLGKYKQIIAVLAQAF

In general, IC50 refers to the midpoint of a concentration-inhibition curve. A low value points to higher potency. The molecule B1 showed an IC50 in assay [1] of 45 nM.
Turning to B2, in the assay with Mature human IL-6 [2], the “Mean IC50, inhibition of IL-6 induced IgM secretion from SKW6.4 cells, n=3” value (“Mean IC50, inhibition” below) turned out to be 0.00321 nM. Besides, the “IC50, endogenous IL-6 induced synovial fibroblast VEGF release assay” value in the assay with Mature human IL-6 [3] worked out at 0.57 nM. Also, the “IC50, IL-6 induced TF-1 cell proliferation assay” value with Mature human IL-6 [4] turned out to be 0.001 nM.
As usually defined, the Kd is the free concentration of one partner at which half of the binding sites on the other are occupied at equilibrium, for simple one-to-one binding. Read a high Kd as weaker binding. Take B3: in the assay with Mature human IL-6 [2], the “Mean IC50, inhibition” value is 0.00264 nM. Also, the “IC50, endogenous IL-6 induced synovial fibroblast VEGF release assay” value with Mature human IL-6 [3] stood at 0.75 nM. Besides, the Kd with Mature human IL-6 [5] and with Cynomolgus IL-6 was under 0.01 nM throughout. Moreover, the “IC50, IL-6 induced TF-1 cell proliferation assay” value in the assay with Mature human IL-6 [4] stood at 0.005 nM.
In assay [1], B4 yielded an IC50 of 0.31 nM. For the same molecule, the binding result with Human CNTF, in the assay with Human LIF, with Human IL-11, in the assay with Murine IL-6, with Human Oncostatin M and in the assay with Rat IL-6 was “no binding” in each case. Besides, the “IC50, IL-6 induced TF-1 cell proliferation” value with Mature human IL-6 [6] was 93 nM. Also, in the assay with Mature human IL-6 [6], the “IC50, endogenous IL-6 induced VEGF release from human synovial fibroblasts” value is 45 nM.
As for B5, the “Mean IC50, inhibition” value with Mature human IL-6 [2] came out at 0.00263 nM. In the assay with Mature human IL-6 [3], the “IC50, endogenous IL-6 induced synovial fibroblast VEGF release assay” value was 0.93 nM. The Kd in the assay with Mature human IL-6 [5] and in the assay with Cynomolgus IL-6 was under 0.01 nM each time. Also, the “IC50, IL-6 induced TF-1 cell proliferation assay” value in the assay with Mature human IL-6 [4] turned out to be 0.003 nM.
B6 displayed an IC50 with CAN022D10 IgG of about 100 nM.
